Each block holds one substance with its values, some of them ahead of it.
Legend:
Assay in all cases: cell-based or functional assay
[1] = target: CadC-artTM-GCN4 (E. coli) (UniProt P23890)
[2] = target: CadC-wtTM-GCN4 (E. coli) (UniProt P23890)
[3] = target: DsRed (UniProt Q9U6Y8)
Sequence of DsRed (Q9U6Y8 whole entry): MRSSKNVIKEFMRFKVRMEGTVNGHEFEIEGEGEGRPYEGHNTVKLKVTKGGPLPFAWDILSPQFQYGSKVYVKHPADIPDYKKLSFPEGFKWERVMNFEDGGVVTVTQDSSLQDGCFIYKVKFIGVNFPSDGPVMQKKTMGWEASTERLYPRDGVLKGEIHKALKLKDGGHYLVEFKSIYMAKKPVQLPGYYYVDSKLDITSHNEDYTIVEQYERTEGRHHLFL

fold change in GFP expression compared to the construct without GCN4 (pCadBA-GFP reporter, E. coli, flow cytometry) [1]: 300 fold
Substance: CadC-artTM-GCN4 (from UniProt P23890 1-154; P03069 253-274)

fold change in GFP expression compared to the construct without GCN4 (pCadBA-GFP reporter, E. coli, flow cytometry) [2]: 50 fold
Substance: CadC-wtTM-GCN4 (from UniProt P23890 1-187; P03069 253-274)

deGFP signal strength with DsRed in the medium (cell-free system, pLexA-deGFP reporter 300 ng/reaction, LexA-Lam4 plasmid 800 ng/reaction) [3]: 4850 a.u.
deGFP signal strength without DsRed in the medium (baseline; cell-free system, pLexA-deGFP reporter 300 ng/reaction, LexA-Lam4 plasmid 800 ng/reaction) [3]: 41400 a.u.
ratio of deGFP signal strength without and with DsRed (cell-free system, pLexA-deGFP reporter 300 ng/reaction, LexA-Lam4 plasmid 800 ng/reaction) [3]: 8.5
Substance: LexA-DBD-Lam4 (from UniProt P0A7C2 1-87)
